Target: human angiotensin-converting enzyme 2 (ACE2) (human) (UniProt Q9BYF1)
Experiment: FRET or BRET

human angiotensin-converting enzyme 2 (ACE2) (human), sequence (Q9BYF1 18-740): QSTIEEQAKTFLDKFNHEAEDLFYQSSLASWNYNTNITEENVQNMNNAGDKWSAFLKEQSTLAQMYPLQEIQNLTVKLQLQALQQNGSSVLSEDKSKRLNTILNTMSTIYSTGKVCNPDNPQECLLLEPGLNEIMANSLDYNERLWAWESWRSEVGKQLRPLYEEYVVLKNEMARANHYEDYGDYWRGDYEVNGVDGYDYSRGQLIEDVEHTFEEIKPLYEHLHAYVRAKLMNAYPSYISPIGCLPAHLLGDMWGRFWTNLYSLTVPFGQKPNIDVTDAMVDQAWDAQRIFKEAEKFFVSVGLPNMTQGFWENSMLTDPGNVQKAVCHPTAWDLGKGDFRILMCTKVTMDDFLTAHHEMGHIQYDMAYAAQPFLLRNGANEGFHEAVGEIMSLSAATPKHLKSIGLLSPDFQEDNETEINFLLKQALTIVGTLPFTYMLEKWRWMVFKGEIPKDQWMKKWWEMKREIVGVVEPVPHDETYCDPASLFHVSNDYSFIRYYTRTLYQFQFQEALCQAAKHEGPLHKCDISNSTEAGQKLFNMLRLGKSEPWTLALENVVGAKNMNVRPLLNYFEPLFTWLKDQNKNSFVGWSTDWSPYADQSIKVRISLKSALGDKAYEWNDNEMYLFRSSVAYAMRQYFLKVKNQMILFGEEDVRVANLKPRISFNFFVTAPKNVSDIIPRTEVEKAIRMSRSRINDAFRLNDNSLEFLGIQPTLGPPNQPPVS

SARS-CoV receptor-binding domain (RBD) (from UniProt P59594) (domain or fragment)
reduction in complex formation (FRET of SARS-CoV-2 RBD with ACE2): 70%

Reference: article PMC8126837
